Measurements taken from article PMC2955198 (Cell, 2010).
Where “and” joins values, the source holds several entries; their conditions need not be identical. Identical values can stand only once.

B1: S. cerevisiae Csm1 full-length (natural protein, UniProt P25651 1-190, looked up)
chain: MDPLTVYKNSVKQQIDSADLLVANLVNENFVLSEKLDTKATEIKQLQKQIDSLNAQVKELKTQTSQQAENSEVIKDLYEYLCNVRVHKSYEDDSGLWFDISQGTHSGGSSDDYSIMDYKLGFVKGQAQVTEVIYAPVLKQRSTEELYSLQSKLPEYLFETLSFPLSSLNQFYNKIAKSLNKKREKKDETE

Molecular target: S. pombe Pcs1 full-length (S. pombe) (UniProt O13684)
Sequence (O13684 whole entry): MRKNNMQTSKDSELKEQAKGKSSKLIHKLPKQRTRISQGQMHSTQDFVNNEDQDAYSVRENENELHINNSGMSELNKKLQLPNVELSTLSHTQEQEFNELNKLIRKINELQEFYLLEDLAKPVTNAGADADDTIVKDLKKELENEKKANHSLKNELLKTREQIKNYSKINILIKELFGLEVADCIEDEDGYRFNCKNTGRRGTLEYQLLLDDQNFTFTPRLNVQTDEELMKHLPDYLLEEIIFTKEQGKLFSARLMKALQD
Experiment: AUC

Binder | stoichiometry N (copies of Mde4 in the complex) | stoichiometry N (copies of Pcs1 in the complex)
Mde4 full-length (natural protein) MSTISTSTDSKLDNLGLSVTSRRNQILFYLSKALNLAHLLRSDSLQKSFLDALKQSATDSELLHKNLDEIKFLQNEKLNNEKLLEQEQNEANDYRLKVERLEHKISDYVQEINSLNSQLQIQKSNPEKHEDAVSQNRLRGSLDTVSSPSKTHKANKDEKATRLHLIIANLKKALKEKDAEVLNLQSHVSSKESELDRFKIKLETEESNWKVRLQVLESKLATQDRKLRMQKKSTERKSLLVSPRVSSPKLFSPSKQAIMGTRQPNATSGSPLSVTPFLQKTSTSIGLSSSPPQSSPSAQSSQPFSRDKYPHSMTVSPSNARYLKKHLDDTIPSNVSDINHNDHLKIPQSPSSLSPSKIPIRKKRKLKDTVSNCEFTEEDSESSFLLETIQPTKSTLRRSISPLKKRNDEINELKKGFTMKK | 2 | 4
Mde4 1-231 (domain or fragment) MSTISTSTDSKLDNLGLSVTSRRNQILFYLSKALNLAHLLRSDSLQKSFLDALKQSATDSELLHKNLDEIKFLQNEKLNNEKLLEQEQNEANDYRLKVERLEHKISDYVQEINSLNSQLQIQKSNPEKHEDAVSQNRLRGSLDTVSSPSKTHKANKDEKATRLHLIIANLKKALKEKDAEVLNLQSHVSSKESELDRFKIKLETEESNWKVRLQVLESKLATQDRKLRMQK | 2 | 4
Mde4 1-125 (domain or fragment) MSTISTSTDSKLDNLGLSVTSRRNQILFYLSKALNLAHLLRSDSLQKSFLDALKQSATDSELLHKNLDEIKFLQNEKLNNEKLLEQEQNEANDYRLKVERLEHKISDYVQEINSLNSQLQIQKSN | 2 | 4
Mde4 1-77 (domain or fragment) MSTISTSTDSKLDNLGLSVTSRRNQILFYLSKALNLAHLLRSDSLQKSFLDALKQSATDSELLHKNLDEIKFLQNEK | 2 | 4

Molecular target: B1
Experiment: AUC

Binder | stoichiometry N
Lrs4 1-102 (domain or fragment, S. cerevisiae, UniProt Q04087 1-102, looked up) MTTLLQLLSNYYKAKLDSERIYNEYVQSQYEFASLDKLNNNKGDPKKVVDETLFLQRQIAQLNKQLQLSFQENEKLLSVQKNQKALYQSKLSSKDAFIDDLK | 4 copies of Csm1 in the complex and 2 copies of Lrs4 in the complex
Lrs4 full-length (natural protein, S. cerevisiae, UniProt Q04087 1-347, looked up) MTTLLQLLSNYYKAKLDSERIYNEYVQSQYEFASLDKLNNNKGDPKKVVDETLFLQRQIAQLNKQLQLSFQENEKLLSVQKNQKALYQSKLSSKDAFIDDLKLKLKVEQISVDKHNKERTPSTGRDEQQRNSKAAHTSKPTIHLLSPIVNRDKPNNQTNDRGGNDPDSPTSQRRSRGLRSLLSSGKNTIFDSISKNLDDEINENAHIRNDTTSSKIAGKSPSRLSALQKSPELRKERNNMILKEHILRSKDDQNITSSRKLDNIELSSIGDSTAMTSRSSTVNANDILGNEENDGITKLKRVNKLTSSPVKRDCSTNKKRKLTKQRIATLPNSDEELSNNLNVDEFV | 4 copies of Csm1 in the complex and 2 copies of Lrs4 in the complex

Molecular target: the molecule itself
Experiment: AUC

Binder | stoichiometry N
B1 | 2
Csm1 1-181 (domain or fragment, S. cerevisiae, UniProt P25651 1-181, looked up) MDPLTVYKNSVKQQIDSADLLVANLVNENFVLSEKLDTKATEIKQLQKQIDSLNAQVKELKTQTSQQAENSEVIKDLYEYLCNVRVHKSYEDDSGLWFDISQGTHSGGSSDDYSIMDYKLGFVKGQAQVTEVIYAPVLKQRSTEELYSLQSKLPEYLFETLSFPLSSLNQFYNKIAKSLNK | 2
Csm1 69-190 (domain or fragment, S. cerevisiae, UniProt P25651 69-190, looked up) ENSEVIKDLYEYLCNVRVHKSYEDDSGLWFDISQGTHSGGSSDDYSIMDYKLGFVKGQAQVTEVIYAPVLKQRSTEELYSLQSKLPEYLFETLSFPLSSLNQFYNKIAKSLNKKREKKDETE | 2
